What was measured:
Assay in all cases: cell-based or functional assay
[1] = target: HIV-1 Env of pseudovirus 3016.v5.c45 (HIV-1)
[2] = target: HIV-1 Env of pseudovirus X1632_S2_B10 (HIV-1)
[3] = target: HIV-1 Env of pseudovirus Ce2010_F5 (HIV-1)
[4] = target: HIV-1 Env of pseudovirus Du156.12 (HIV-1)
[5] = target: HIV-1 Env of pseudovirus BJOX015000.11.5 (HIV-1)
[6] = target: HIV-1 Env of pseudovirus ZM249M.PL1 (HIV-1)
[7] = target: HIV-1 Env of pseudovirus T257-31 (HIV-1)
[8] = target: HIV-1 Env of pseudovirus BJOX010000.06.2 (HIV-1)
[9] = target: HIV-1 Env of pseudovirus HIV-0013095-2.11 (HIV-1)
[10] = target: HIV-1 Env of pseudovirus Ce0682_E4 (HIV-1)
[11] = target: HIV-1 Env of pseudovirus Q461.e2 (HIV-1)
[12] = target: HIV-1 Env of pseudovirus 191084 B7-19 (HIV-1)
[13] = target: HIV-1 Env of pseudovirus WEAU_d15_410_787 (HIV-1)
[14] = target: HIV-1 Env of pseudovirus 6540.v4.c1 (HIV-1)
[15] = target: HIV-1 Env of pseudovirus 235-47 (HIV-1)
[16] = target: HIV-1 Env of pseudovirus HIV-16845-2.22 (HIV-1)
[17] = target: HIV-1 Env of pseudovirus CNE53 (HIV-1)
[18] = target: HIV-1 Env of pseudovirus Q259.d2.17 (HIV-1)
[19] = target: HIV-1 Env of pseudovirus MS208.A1 (HIV-1)
[20] = target: HIV-1 Env of pseudovirus R1166.c01 (HIV-1)
[21] = target: HIV-1 Env of pseudovirus QH0692.42 (HIV-1)
[22] = target: HIV-1 Env of pseudovirus Ce2060_G9 (HIV-1)
[23] = target: HIV-1 Env of pseudovirus 62357_14_D3_4589 (HIV-1)
[24] = target: HIV-1 Env of pseudovirus BJOX009000.02.4 (HIV-1)
[25] = target: HIV-1 Env of pseudovirus R3265.c06 (HIV-1)
[26] = target: HIV-1 Env of pseudovirus PVO.4 (HIV-1)
[27] = target: HIV-1 Env of pseudovirus A07412M1.vrc12 (HIV-1)
[28] = target: HIV-1 Env of pseudovirus P1981_C5_3 (HIV-1)
[29] = target: HIV-1 Env of pseudovirus REJO4541.67 (HIV-1)
[30] = target: HIV-1 Env of pseudovirus Du422.1 (HIV-1)
[31] = target: HIV-1 Env of pseudovirus C1080.c03 (HIV-1)
[32] = target: HIV-1 Env of pseudovirus TRO.11 (HIV-1)
[33] = target: HIV-1 Env of pseudovirus X2088_c9 (HIV-1)
[34] = target: HIV-1 Env of pseudovirus ZM214M.PL15 (HIV-1)
[35] = target: HIV-1 Env of pseudovirus C4118.c09 (HIV-1)
[36] = target: HIV-1 Env of pseudovirus 6952.v1.c20 (HIV-1)

For PGT151 (antibody), the IC50, titer in TZM.bl cells [1] was 0.174 µg/mL, the IC80, titer in TZM.bl cells [1] was 40.7 µg/mL and the IC50, titer in TZM.bl cells [2] was 0.061 µg/mL. The IC80, titer in TZM.bl cells [2] was > 50 µg/mL, the IC50 [3] was > 50 µg/mL and the IC80 [3] was > 50 µg/mL. The IC50 [4] was 5 ng/mL, the IC80 [4] was 0.023 µg/mL and the IC50, titer in TZM.bl cells [5] was > 50 µg/mL. The IC80, titer in TZM.bl cells [5] was > 50 µg/mL, the IC50 [6] was 4 ng/mL and the IC80 [6] was 0.015 µg/mL. For the same substance, the IC50 [7] was 3 ng/mL, the IC80 [7] was 0.01 µg/mL and the IC50, titer in TZM.bl cells [8] was > 50 µg/mL. For the same substance, the IC80, titer in TZM.bl cells [8] was > 50 µg/mL, the IC50 [9] was > 50000 ng/mL and the IC80 [9] was > 50 µg/mL. The IC50 [10] was > 50 µg/mL, the IC80 [10] was > 50 µg/mL and the IC50 [11] was 12.6 µg/mL. The IC80 [11] was > 50 µg/mL, the IC50 [12] was 4 ng/mL and the IC80 [12] was 0.016 µg/mL. For the same substance, the IC50 [13] was 0.01 µg/mL, the IC80 [13] was > 50 µg/mL and the IC50, titer in TZM.bl cells [14] was 6 ng/mL. For the same substance, the IC80, titer in TZM.bl cells [14] was 0.03 µg/mL, the IC50, titer in TZM.bl cells [15] was 38.1 µg/mL and the IC80, titer in TZM.bl cells [15] was > 50 µg/mL. The IC50 [16] was > 50 µg/mL, the IC80 [16] was > 50 µg/mL and the IC50 [17] was > 50 µg/mL. The IC80 [17] was > 50 µg/mL, the IC50 [18] was > 50 µg/mL and the IC80 [18] was > 50 µg/mL. For the same substance, the IC50 [19] was < 1 ng/mL, the IC80 [19] was 0.003 µg/mL and the IC50, titer in TZM.bl cells [20] was > 50 µg/mL. For the same substance, the IC80, titer in TZM.bl cells [20] was > 50 µg/mL, the IC50 [21] was 0.029 µg/mL and the IC80 [21] was 0.522 µg/mL. The IC50 [22] was 0.135 µg/mL, the IC80 [22] was > 50000 ng/mL and the IC50 [23] was 4 ng/mL. The IC80 [23] was 0.023 µg/mL, the IC50, titer in TZM.bl cells [24] was > 50 µg/mL and the IC80, titer in TZM.bl cells [24] was > 50 µg/mL. For the same substance, the IC50, titer in TZM.bl cells [25] was > 50 µg/mL, the IC80, titer in TZM.bl cells [25] was > 50 µg/mL and the IC50 [26] was 0.017 µg/mL. The IC80 [26] was > 50 µg/mL, the IC50, titer in TZM.bl cells [27] was 0.246 µg/mL and the IC80, titer in TZM.bl cells [27] was > 50 µg/mL. For the same substance, the IC50, titer in TZM.bl cells [28] was 0.021 µg/mL, the IC80, titer in TZM.bl cells [28] was > 50 µg/mL and the IC50 [29] was 0.018 µg/mL. For the same substance, the IC80 [29] was 0.119 µg/mL, the IC50 [30] was 4.6 µg/mL and the IC80 [30] was > 50 µg/mL. For the same substance, the IC50, titer in TZM.bl cells [31] was > 50 µg/mL, the IC80, titer in TZM.bl cells [31] was > 50 µg/mL and the IC50 [32] was > 50 µg/mL. For the same substance, the IC80 [32] was > 50 µg/mL, the IC50, titer in TZM.bl cells [33] was > 50 µg/mL and the IC80, titer in TZM.bl cells [33] was > 50 µg/mL. For the same substance, the IC50 [34] was 8 ng/mL, the IC80 [34] was 0.045 µg/mL and the IC50, titer in TZM.bl cells [35] was > 50000 ng/mL. For the same substance, the IC80, titer in TZM.bl cells [35] was > 50000 ng/mL, the IC50, titer in TZM.bl cells [36] was 49.2 µg/mL and the IC80, titer in TZM.bl cells [36] was > 50 µg/mL.

With PGDM1400 (antibody) the IC50, titer in TZM.bl cells [1] was > 50 µg/mL, the IC80, titer in TZM.bl cells [1] was > 50 µg/mL and the IC50, titer in TZM.bl cells [2] was 0.055 µg/mL. For the same substance, the IC80, titer in TZM.bl cells [2] was 1.45 µg/mL, the IC50 [3] was > 50 µg/mL and the IC80 [3] was > 50 µg/mL. The IC50 [4] was 2 ng/mL, the IC80 [4] was 0.008 µg/mL and the IC50, titer in TZM.bl cells [5] was 0.52 µg/mL. It also gave an IC80, titer in TZM.bl cells [5] of 10.6 µg/mL, an IC50 [6] of 16 ng/mL and an IC80 [6] of 0.701 µg/mL. For the same substance, the IC50 [7] was 2 ng/mL, the IC80 [7] was 0.031 µg/mL and the IC50, titer in TZM.bl cells [8] was 0.605 µg/mL. It also gave an IC80, titer in TZM.bl cells [8] of 5.87 µg/mL, an IC50 [9] of 3 ng/mL and an IC80 [9] of 0.012 µg/mL. The IC50 [10] was 0.01 µg/mL, the IC80 [10] was 0.043 µg/mL and the IC50 [11] was 0.089 µg/mL. The IC80 [11] was 0.572 µg/mL, the IC50 [12] was < 1 ng/mL and the IC80 [12] was 0.007 µg/mL. It also gave an IC50 [13] of 0.103 µg/mL, an IC80 [13] of 1.37 µg/mL and an IC50, titer in TZM.bl cells [14] of 4 ng/mL. The IC80, titer in TZM.bl cells [14] was 0.028 µg/mL, the IC50, titer in TZM.bl cells [15] was 0.005 µg/mL and the IC80, titer in TZM.bl cells [15] was 0.032 µg/mL. For the same substance, the IC50 [16] was > 50 µg/mL, the IC80 [16] was > 50 µg/mL and the IC50 [17] was 0.077 µg/mL. For the same substance, the IC80 [17] was 0.246 µg/mL, the IC50 [18] was 0.166 µg/mL and the IC80 [18] was > 50 µg/mL. The IC50 [19] was < 1 ng/mL, the IC80 [19] was 0.139 µg/mL and the IC50, titer in TZM.bl cells [20] was 1.43 µg/mL. For the same substance, the IC80, titer in TZM.bl cells [20] was 6.92 µg/mL, the IC50 [21] was > 50 µg/mL and the IC80 [21] was > 50 µg/mL. For the same substance, the IC50 [22] was 0.001 µg/mL, the IC80 [22] was 7 ng/mL and the IC50 [23] was > 50000 ng/mL. For the same substance, the IC80 [23] was > 50 µg/mL, the IC50, titer in TZM.bl cells [24] was 0.443 µg/mL and the IC80, titer in TZM.bl cells [24] was 1.29 µg/mL. The IC50, titer in TZM.bl cells [25] was 0.013 µg/mL, the IC80, titer in TZM.bl cells [25] was 0.041 µg/mL and the IC50 [26] was 0.484 µg/mL. For the same substance, the IC80 [26] was 6.49 µg/mL, the IC50, titer in TZM.bl cells [27] was 0.032 µg/mL and the IC80, titer in TZM.bl cells [27] was 0.127 µg/mL. The IC50, titer in TZM.bl cells [28] was 0.104 µg/mL, the IC80, titer in TZM.bl cells [28] was 4.6 µg/mL and the IC50 [29] was 0.028 µg/mL. The IC80 [29] was 0.992 µg/mL, the IC50 [30] was 0.694 µg/mL and the IC80 [30] was > 50 µg/mL. The IC50, titer in TZM.bl cells [31] was < 0.001 µg/mL, the IC80, titer in TZM.bl cells [31] was < 0.001 µg/mL and the IC50 [32] was 0.283 µg/mL. For the same substance, the IC80 [32] was 1.38 µg/mL, the IC50, titer in TZM.bl cells [33] was > 50 µg/mL and the IC80, titer in TZM.bl cells [33] was > 50 µg/mL. For the same substance, the IC50 [34] was > 50000 ng/mL, the IC80 [34] was > 50 µg/mL and the IC50, titer in TZM.bl cells [35] was 2 ng/mL. It also gave an IC80, titer in TZM.bl cells [35] of 5 ng/mL, an IC50, titer in TZM.bl cells [36] of 0.501 µg/mL and an IC80, titer in TZM.bl cells [36] of 11.8 µg/mL.

Reference: patent US20230002480A1
